Reference: patent publication US20120282637A1 (Sanofi, published 2012)

Legend:
mouse sRAGE = mouse sRAGE (mouse, UniProt Q62151 23-340, limits assumed); assay: ELISA, O.D. 450 nm, one bar per species; plate format and antibody concentration not given
rat sRAGE = rat sRAGE (rat, UniProt Q63495 23-341, limits assumed); assay: as above
[1] = biological target: T1, sRAGE (V-C1-C2) lot LP08062 (human, UniProt Q15109 23-331, limits assumed); assay: SPR (Biacore), mAb captured on anti-mouse Fc, sRAGE 15 nM, Langmuir 1:1
T1 construct: domain: V-C1-C2; also called Human RAGE; LP08062 (Rage)
T1 sequence (Q15109 23-331 limits assumed): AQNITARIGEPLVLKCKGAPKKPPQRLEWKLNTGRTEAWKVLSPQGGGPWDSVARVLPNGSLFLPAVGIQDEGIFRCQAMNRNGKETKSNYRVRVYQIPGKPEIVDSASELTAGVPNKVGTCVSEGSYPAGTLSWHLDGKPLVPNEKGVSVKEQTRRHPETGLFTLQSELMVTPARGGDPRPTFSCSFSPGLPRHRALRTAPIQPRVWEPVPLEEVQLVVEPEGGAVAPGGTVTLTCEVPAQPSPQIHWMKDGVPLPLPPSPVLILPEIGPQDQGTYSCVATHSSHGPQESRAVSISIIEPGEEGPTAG
Procedure: The assay is based on a capture assay using immobilized anti-mouse Fc IgG on CM5 chip. For immobilization of anti-Fc antibody HBS-EP was used as running buffer. Standard amine coupling to a CM5 chip was carried out at a contact time of 11 min and a flow rate of 10 μl/min. 10 mM Sodium Acetate pH 5.0 was used as immobilization buffer. The protein concentration (anti-mouse Fc, Biacore BR-1008-38) was 100 μg/mL.
For binding analysis SN anti-RAGE mAb diluted in running buffer at 1/10 (flow rate 5 μl/min) and sRAGE (V-C1-C2) lot LP08062 diluted in running buffer at 15 nM (flow rate 50 μl/min) was used as […], respectively (running buffer: HBS-P+BSA 12 mg/mL+CM Dextran 12 mg/mL and Regeneration solution: 10 mM Glycine pH 1.7). Langmuir 1:1 analysis was used as fitting model.

RAGE C2 domain = biological target: T2, RAGE C2 domain (UniProt Q15109 235-327, limits assumed); assay: domain mapping, Table 1
T2 construct: domain: C2 domain
T2 sequence (Q15109 235-327 limits assumed): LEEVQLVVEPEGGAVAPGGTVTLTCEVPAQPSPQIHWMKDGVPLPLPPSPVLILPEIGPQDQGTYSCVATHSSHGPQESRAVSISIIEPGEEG

Sequence of rat sRAGE (Q63495 23-341 limits assumed): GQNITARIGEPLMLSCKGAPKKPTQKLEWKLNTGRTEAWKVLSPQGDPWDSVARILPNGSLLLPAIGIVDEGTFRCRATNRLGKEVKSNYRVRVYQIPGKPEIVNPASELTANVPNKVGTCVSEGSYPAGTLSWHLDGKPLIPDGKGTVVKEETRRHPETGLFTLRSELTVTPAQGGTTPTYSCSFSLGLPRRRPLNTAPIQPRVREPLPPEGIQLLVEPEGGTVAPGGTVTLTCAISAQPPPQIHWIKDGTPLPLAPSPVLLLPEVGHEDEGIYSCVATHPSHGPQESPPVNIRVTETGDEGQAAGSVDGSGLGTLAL
Sequence of mouse sRAGE (Q62151 23-340 limits assumed): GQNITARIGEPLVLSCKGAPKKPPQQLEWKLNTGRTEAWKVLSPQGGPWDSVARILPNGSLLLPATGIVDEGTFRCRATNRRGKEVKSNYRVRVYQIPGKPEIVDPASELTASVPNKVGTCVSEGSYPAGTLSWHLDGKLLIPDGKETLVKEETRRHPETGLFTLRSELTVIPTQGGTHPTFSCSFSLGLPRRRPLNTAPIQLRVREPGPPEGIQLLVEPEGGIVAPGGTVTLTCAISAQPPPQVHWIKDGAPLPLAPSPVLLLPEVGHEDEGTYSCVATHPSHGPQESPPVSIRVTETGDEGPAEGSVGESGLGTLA

Binder | binding result (mouse sRAGE) | binding result (rat sRAGE) | Kd [1] [pM] | koff [1] [s⁻¹] | kon [1] [M⁻¹ s⁻¹] | binding result (RAGE C2 domain)
130 RAGE-1 (antibody, V domains shown, Anti-RAGE monoclonal antibody from a hybridoma, captured by anti-mouse Fc; also called Protein 130 RAGE-1) VH: EVQLVESGGGLVKPGGSLKLSCAASGFTFSSYVMSWVRQSPEKRLEWVAEISSGGSYTYYPDTVTGRFTISRDNDKNTLYLEMSSLRSEDTAMYYCARPPYGKDAMDYWGQGTSVTVSS VL: QIVLTQSPAIMSASPGEKVTMTCSASSSVSYMHWYQQKSGTSPKRWISDTSKLASGVPARFSGSGSGTSYSLTISSMEAEDAATYYCQQWSSNPPTFGGGTKLEIK | no binding (tested: not given) | no binding (tested: not given) | 236 | 0.00136 | 5.76e+06 | 
529 RAGE-1 (antibody, V domains shown, Anti-RAGE monoclonal antibody from a hybridoma, captured by anti-mouse Fc) VH: EIQLQQTGPELVKPGASVKISCKASGYSFTDYIMLWVKQSHGKSLEWIGNINPYYGSTFYNLKFKGKATLTVDKSSSTAYMQLNSLTSEDSAVYYCARSDYWYFDVWGAGTTVTVSS VL: QAVVTQESALTTSPGETVTLTCRSSTGAVTTSNYANWVQEKPDHLFTGLIGGTNNRSPGVPARFSGSLIGDKAALTITGAQTEDEAIYFCALWYSNHLVFGGGTKLTVL |  |  | 552 | 0.00169 | 3.06e+06 | 
501-4 RAGE-1 (antibody, V domains shown, Anti-RAGE monoclonal antibody from a hybridoma, captured by anti-mouse Fc) VH: EVMLVDSGGGLVKPGGSLKLSCAASGFTFRSYAMSWVRQTPEKRLEWVATISSGGSYTYYPDSVRGRFTTSRDNGKNTLYLQMSSLRSEDTAMYYCARHGGNYSAWFTYWGQGTLVTVSA VL: QAVVTQESALTTSPGETVTLTCRSSTGAVTTSNYANWVQEKPDHLFTGLIGGTNNRAPDVPARFSGSLIGDKAALTITGAQTEDEAIYFCALWYSNHWVFGGGTKLTVL |  |  | 85.8 | 0.000103 | 1.2e+06 | 
283 RAGE-1 (antibody, V domains shown, Anti-RAGE monoclonal antibody from a hybridoma, captured by anti-mouse Fc; also called Protein 283 RAGE-1) VH: QVQLQQSGAELVRPGTSVKVSCKASGYAFTNYLIEWVKQRPGQGLEWIGVINPGSGGTNYSERFKGKATLTADKSSSTAYMQLSSLTSDDSAVYFCASYRYDGGMDYWGQGTSVTVSS VL: QAVVTQESALTTSPGETVTLTCRSSTGAVTTSNYANWVQEKPDHLFTGLIRGTNNRAPGVPARFSGSLIGDKAALTITGAQTEDEAIYFCALWYSNHWVFGGGTKLTVL |  |  | 371 | 0.00196 | 5.29e+06 | 
140 RAGE-1 (antibody, V domains shown, Anti-RAGE monoclonal antibody from a hybridoma, captured by anti-mouse Fc; also called Protein 140 RAGE-1) VH: QVQLQQPGAELVKPGASVRLSCKASGYTFTSYWMHWVKQRPGQGLEWIGEINPSNGRTNYNEKFKSKATLTVDKSSSTAYMQLSSLTSEDSAVYYCARDGLGYRPIAMDYWGQGTSVTVSS VL: QIVLTQSPAIMSASPGEKVTISCSASSSVSYMYWYQQKPGSSPKPWIYRTSNLASGVPARFSGSGSGTSYSLTISSMEAEDAATYYCQQYHSYPPMYTFGGGTKLEIK |  |  | 303 | 0.00157 | 5.19e+06 | 
173 RAGE-1 (antibody, V domains shown, Anti-RAGE monoclonal antibody from a hybridoma, captured by anti-mouse Fc; also called LP08107) VH: EVKLEESGGGLVQPGGSMKLSCVASGFTFSNYWMNWVRQSPEKGLEWVAEIRLKSNNYATHYAESVKGRFTISRDDSKSSVYLQMNDLRAEDPGIYYCIRDYGNYAMDHWGQGTSVTVSS VL: DIVMTQSQKFMSTSVGDRVSVTCKASQNVGTNVAWYQQKPGQSPKALIYSASYRYSGVPDRFTGSGSGTDFTLTISNVQSEDLAEYFCQQYNSYPLTFGAGTKLELK | no binding (tested: not given) | no binding (tested: not given) | 678 | 0.00227 | 3.35e+06 | no binding
210 RAGE-1 (antibody, V domains shown, Anti-RAGE monoclonal antibody from a hybridoma, captured by anti-mouse Fc; also called Protein 210 RAGE-1) VH: EIQLQQTGPELVKPGASVKISCKASGYSFTDYIMVWVKQSHGKSLEWIGTINPYYGSTSYNLKFKGKATLTVDKSSSTANMQLNSLTSEDSAVYYCARLRLYAMDYWGQGTSVTVSS VL: QAVVTQESALTTSPGETVTLTCRSSTGAVTTSNYANWVQEKPDHLFTGLIGGTNNRAPGVPARFSGSLIGDKAALTITGAQTEDEAIYFCALWYSNHFWVFGGGTKLTVL |  |  | 276 | 0.00107 | 3.88e+06 | 
316 RAGE-1 (antibody, V domains shown, Anti-RAGE monoclonal antibody from a hybridoma, captured by anti-mouse Fc; also called Protein 316 RAGE-1) VH: QVQLQQSGPELVRPGASVKMSCKASGYTFTSYWMHWVKQRPGQGLEWIGMIDPSNSETRLNQKFKDKATLNVDKSSNTAYMQLSSLTSEDSAVYYCARNFYGSSLRVWGAGTTVTVSS VL: DIVLTQSPASLAVSLGQRATISCRASKSVSISGYSYLHWNQQKPGQSPKLLIYLASNLESGVPARFSGSGSGTDFTLNIHPVEEEDAATYYCQHSRELPYTFGGGTKLEIK | no binding (tested: not given) | no binding (tested: not given) | 319 | 0.00177 | 5.54e+06 | 
184 RAGE-1 (antibody, V domains shown, Anti-RAGE monoclonal antibody from a hybridoma, captured by anti-mouse Fc; also called Protein 184 RAGE-1) VH: QVQLQQSGAELVRPGTSVKVSCKASGYAFTNYLIEWVKQRPGQGLEWIGMINPGSGGTNYNEKFKGKATLTADKSSSTAYMQLSSLTSDDSAVYFCARGRGGHYRYFDVWGAGTTVTVSS VL: DIVLTQSPASLAVSLGQRATISCRASKSVSTSGYSYMHWYQQKPGQPPKLLIYLASHLESGVPARFSGSGSGTDFSLNIHPVEEEDAATYYCQHSRELPWTFGGGTKLEIK |  |  | 595 | 0.00163 | 2.74e+06 | 
499 RAGE-1 (antibody, V domains shown, Anti-RAGE monoclonal antibody from a hybridoma, captured by anti-mouse Fc; also called Protein 499 RAGE-1) VH: EVQLQQSGTVLARPGASVKMSCKASGYTFTSYWMHWVKQRPGQGLEWIGAIYPGDSDTYYNQKFKGKAKLTAVTSTSTAYMELSSLTNEDSAVYYCTRNWDYWGQGTTLTVSS VL: DIVMTQSHKFMSTSVGDRVSITCKASQDVSTAVAWYQQKPGQSPKLLIYSASYRYTGVPDRFTGSGSGTDFTFTISSVQAEDLAVYYCQQHYNTPRTFGGGTKLEIK |  |  | 793 | 0.00157 | 1.98e+06 | 

More lines, now with the values ahead:

binding result (mouse sRAGE) | binding result (rat sRAGE) | Kd [1] [pM] | koff [1] [s⁻¹] | kon [1] [M⁻¹ s⁻¹] | binding result (RAGE C2 domain) | Binder
 |  | 516 | 0.00224 | 4.34e+06 |  | 259 RAGE-1 (antibody, V domains shown, Anti-RAGE monoclonal antibody from a hybridoma, captured by anti-mouse Fc; also called Protein 259 RAGE -1) VH: QVQLQQSGAELVRPGTSVKVSCKASGYAFTNYLIDWVNQRPGQGLEWIGVINPGSGGTNYNEKFTGKATLTADKSSSTAYMQLSSLTSDDSAVYFCARRRVDTMDYWGQGTSVTVSS VL: QAVVTQESALTTSPGETVTLTCRSSTGAVTTSNYANWVQEKPDHLFTGLIGGTNNRAPGVPARFSGSLIGDKAALTITGAQTEDEAIYFCALWYSNHWVFGGGTKLTVL
 |  | 462 | 0.00123 | 2.66e+06 |  | 95 RAGE-1 (antibody, V domains shown, Anti-RAGE monoclonal antibody from a hybridoma, captured by anti-mouse Fc; also called Protein 95 RAGE-1) VH: QVQLQQPGAELVKPGASVKLSCKASGYTFTSYWMHWVKQRPGQGLEWIGESNPSNGRTNYNEKFKNKATLTVDKSSSTAYMQLSSLTSEDSAVYYCARAPYYGFDYWGQGTTLTVSS VL: QAVVTQESALTTSPGETVTLTCRSSTGAVTTSNYANWVQEKPDHLFTGLTGGTNNRAPGVPARFSGSLIGDKAALTITGAQTEDEAIYFCALWYSNHWVFGGGTKLTVL
 |  | 1730 | 0.00273 | 1.58e+06 |  | 183 RAGE-1 (antibody, V domains shown, Anti-RAGE monoclonal antibody from a hybridoma, captured by anti-mouse Fc; also called Protein 183 RAGE-1) VH: EVQLQQSGTVLARPGASVKMSCKASGYSFTSYWMHWVKQRPGQGLEWIGAIFPGNSDTTYNQKFKGKAKLTAVTSASTAYMELSSLTNEDSAVYYCTGLRRGFPYWGQGTLVTVSV VL: NIVMTQSPKSMSMSVGERVTLSCKASENVGTYVSWYQQKPEQSPKLLIYGASNRYTGVPDRFTGSGSATDFTLTISSVQAEDLADYHCGQSYSYPYTFGGGTKLEIK
no binding (tested: not given) | no binding (tested: not given) | 666 | 0.00227 | 3.41e+06 |  | 347 RAGE-1 (antibody, V domains shown, Anti-RAGE monoclonal antibody from a hybridoma, captured by anti-mouse Fc) VH: QVQLQQSGAELAKPGASVKMSCRASGYTFTDYWMHWVKQRPGQGLEWIGFINPSTVYTEYIPKFKDKATLTADKSSSTAYMQLSSLTSEDSAVYYCARSDGGWYFDVWGAGTTVTVSS VL: DIQMTQSSSYLSVSLGGRVTITCKASDRINYWLAWYQQKPGNAPRLLISGATTLETGVPSRFSGSGSGKDYTLSITSLQTEDVATYYCQQYWSTPYTFGGGTKLELK
no binding (tested: not given) | no binding (tested: not given) | 556 | 0.00199 | 3.58e+06 |  | 250 RAGE-1 (antibody, V domains shown, Anti-RAGE monoclonal antibody from a hybridoma, captured by anti-mouse Fc; also called Protein 250 RAGE-1) VH: EVKLEESGGGLVQPGGSMKLSCVASGFTFSNYWMNWVRQSPEKGLEWVAEIRLKSNNYATHYAESVKGRFTISRDDSKSSVYLQMNNLRAEDTGIYFCIRDYGNYAMDYWGQGTSVTVSS VL: DIVMTQSQKFMSTSVGDRVSVTCKASQNVGTNVAWYQQKPGQSPKALIYSASYRYSGVPDRFTGSGSGTDFTLTISNVQSEDLAEFFCQQYNSYPLTFGAGTKLELK
